# Test results reported in the DeepSol protein solubility set.
# Experiment: soluble on expression in E. coli; label from the status in PepcDB or PDB records
row,Sequence,soluble on expression in E. coli
1,MWLYYLQVVMDMRVYVEGYGCVLNTADTEIIKNSLKKHGFEVVNNLEEADIAIINTCVVRLETENRMIYRINELKNLGKEVVVAGCLPKALKNKVKGFLHIYPREAHKAGEILKNYVEKHYRMPYIEEDINKTLYKKLDYLKPSLITPLPICEGCIGNCSYCIVKIARGGLISYPREKIVNKAKELINKGAKCLLITAQDTACYGFDIGDNLANLLNELTQIKGEFIMRVGMMHAKNAELILDELIEVYQNEKVGKFLHLPLQSGDDEILKRMKRGYTVDEFKDIVNEFRRKIKNLCFTTDIIVGFPGETEEQFQNTLEVLRELKPDYIHGAKYSQRKGTEAAKMKQIDTKIRKRRSEILDKLRRELSYLNNKKYIGKAMKVLVLDEGKGYTDNFKVVKFEGGEVGEFRKVKITDAKTFGLKGELILLEHHHHHH,soluble
2,MRHPIPDYLASLVTELGAVNPGETAQYIPVLAEADPDRFGIALATPTGRLHCAGDADVEFTIQSASKPFTYAAALVDRGFAAVDRQVGLNPSGEAFNELSLEAESHRPDNAMINAGALAVHQLLVGPEASRKERLDRAVEIMSLLAGRRLSVDWETYESEMAVSDRNLSLAHMLRSYGVLQDSAEEIVAGYVAQCAVLVTVKDLAVMGACLATGGIHPMTGERMLPSIVARRVVSVMTSSGMYDAAGQWLADVGIPAKSGVAGGVLGALPGRVGIGVFSPRLDEVGNSARGVLACRRLSEDFRLHLMDGDSLGGTAVRFVEREGDRVFLHLQGVIRFGGAEAVLDALTDLRTGAEKPGTGWDAAVYPRWQEAAADRAALSAATGGGAVHEAAAAAARDENDGPIRTVVLNLARVDRIDDVGRRLIAEGVRRLQADGVRVEVEDPERILPLEEAGAH,soluble
3,MGSSHHHHHHSSGLVPRGSHGLVPRGSHMKKLKLHGFNNLTKSLSFCIYDICYAKTAEERDGYIAYIDELYNANRLTEILSETCSIIGANILNIARQDYEPQGASVTILVSEEPVDPKLIDKTEHPGPLPETVVAHLDKSHICVHTYPESHPEGGLCTFRADIEVSTCGVISPLKALNYLIHQLESDIVTIDYRVRGFTRDINGMKHFIDHEINSIQNFMSDDMKALYDMVDVNVYQENIFHTKMLLKEFDLKHYMFHTKPEDLTDSERQEITAALWKEMREIYYGRNMPAV,soluble
4,MGSDKIHHHHHHMKLVTISGPPSSGKTAVLAGVIRAMMASGLKVGALKYDCLATNDDDVFRAIGVPVQTGLSGNLCPDHYFVSNIEECLDWGIREGFDFLLSESAGLCNRCAPHIKGVLAVCVIDNLMGATTPKKIGPMLKYADIVVITKGDIVSQAEREVFAFQVRRANPRAKIMHVNGITGQGAGELASQFLLAPETTCLDGSRLRFSMPAALCSYCLGETRIGMEFQLGNVKKIKMSEEPAR,not soluble
5,MIHTEPSAQPSTMDTAAFLKHIESAFRRIFSDGIDLMRYLPEDKWLALKQAGLLLPFLDKKYGGRKGSQFEIQEVLRIAGHYGVPVTLRTGIEGALVLQPLQEFGDEAQVAQGLEMIFKGEGGGLGVTEPETSGAAIAREMQSYYEYIDGQTIYVNAAKYWQGNSQSDFLLVAAKERKNGKLAKVIDLLLVPKTYIRCETLASEGLRAVRYAVNRIDAEMPATAVMKLSQSDAAGLRAFQNIFIRSRLQLIGMTHGIMEYILENLERYVRNDIKFVDYERREIRRRHQVSEILYRYVCHSVSPVAPVAHQLMEANIVKTLATEYTYAAAQMLQKLLGAKGFERGHTAGNIAIDIRPFTIFEGPNDMLYAEIYDQFVRATAEEKEAGMKLDKNQTLLDRLQTDARFAAVARDYTLPEDIRSFLQEHTLTDACALQKVFIGKIIARLFVFVQAKHEDTAAFLLNDIRKDILDCRYCG,not soluble
6,MGKDSKKHKKERRRERSPSTSDSDEERLQKRLAEQRSLKKDEKRRQKEEMKKNESAEEKRARRMEKKMRKDAKRKDADAEDTLIPPELNYTNLNNPFNDTKLTQTFVWGKKLEREGKSGLTQDEITKQTSQRIRKNLHEAAEFKRIRDSRAAAKEDMEMMKRDADLRAGQISDTKEREFQMDQIKERTRIRIDQGRAKAIDLLSRYARFADENPHTAKIPDFELENPMEYLKASCKSVDDYEDLIEDIKTYREVDGWAKNETWWMDVTRIAEDEIQKKAAQNRGDVHASVQTEVQNMFKNKSIDELLKLEDQMDAKIRGNSGNKGYWQDLDDQLKVFIARKRLREHHGRVLRLQLAIIKEEQKKEIQQQESEELLPVAEVPPQVKIQKEEEEEEEEDEDDEKISKKVRRKIDVQTLDDPELDEPERERKWRALTGDQLDDVTRELYRIGCYRFSIFFLAEKPPTYISADDTMPGIEILDEQADVDNLTERRNRNRGTLPSSSAASSGAPQGASSKMMAIAREGMEADESIFGAEEQLAAQRHLWSDKYRPRKPTYLNRVQTGFDWNKYNQTHYDQDNPPPKIVQGYKFNIFYPDLLDMTVAPRFGLTSCEDPDFAIIRFKAGPPYEDIAFKVVNREWETLHKNGYKCQFQNGVFQLWFMFKKYRYRR,soluble
7,MGSDKIHHHHHHMIETRQKQERVILIGVALPNSENFDLSMEELASLAKTAGAEVVQTHTQKRDHYDSKSFIGSGKLLEIKQIIATDAIDSVIVNNRLTPRQNAYLEAELGVKVIDRMQLILDIFAMRARSHEGKLQVHLAQLKYMLPRLVGQGIMLSRQAGGIGSRGPGESQLELNRRSIRKQIADIERQLKNAEKNRETNREKRLDSQIFKIGLIGYTNAGKSTIMNVLTDNKQYEADELFATLDATTKQIYLTDHFQATLTDTVGFIQDLPTELVAAFKSTLEESRQVDLLLHVIDASDPNHEEHEKVVHDLLKELGMTAIPRLLVYNKMDKAENFIASQFPHISLSAKSDEAAALLRQSILEKIKTLFVPFTITWRQEKSYKLYELDKIALLTSYDVKQELQEIKGYISEKNKWRLEEFYRELS,not soluble
8,MGSDKIHHHHHHMPIKALRLKAMQLKATRLKAKLLQARLLQASALLGTSLNLVAMAAPYNAINESIDDGFVEAGDILVIAIPATGYLASWLYDDFEGAKQLTFSVLTTQLIVEATKSTVGRYRPNSNVAGGSYKSFPSGHSAGAFSGAAFLQSRYGSRWGIPAYLGAGVVAASRVHGRRHYADDVLGGAGIAILVNQYFVERYDNQGLAVSLFPNDEGGLQFNLSMPLDGPLNGRAGPRAEKRAQPAVHGPKRHRFAVNLGFNMTDSLGMAGAKDLLPDSQLVDDHQPFSYLLYEYLDSSKTSLQLELSPNETRLFGTLSGEFELDGKQYQDGDSLYLAFKQWSLGSQYFYRFAPQGDWHFKLGGGLYAYWVELEVDYLTGGQYAGEGSLEVMPSIEGRTRYHIGGGLSADAMARFQAWSGNQLVAAEAGLSYALGEEWVMGLKYAYSEAKWDALNMEYQTDSIVLTVENRF,not soluble
9,AHHHHHHGSALSDKLDLVNPSEIRKLFDLAAGMKDVISLGIGEPDFDTPAHIKEYAKEGLDKGLTHYGPNVGLPELREAIAEKLKKQNGIEADPNSEIMVLVGANQAFLMSLATFLKDGEEVLIPSPMFVSYAPAVILAGGKPVEVPTYEDNEFRINVDDLKKHVSEKTRALIINSPNNPTGAVLTKKDLEEIADFANEHDLMIISDEVYEHFIYDGAKHYSIAALDGMFGRTITVNGFSKTFAMTGWRLGFVVAPSWVIEKMVKFQMYNATCPVTFIQYAAAKALRDERSWKAVEEMRKEYERRRNLVWKRLNEMGLPTVEPKGAFYIFPRIKDTGLSSKEFSELMLMEAKVAVVPGSAFGRAGEGYIRISYATAYEKLEEAMNRMEKVLKEKKLI,soluble
10,MSHHKLEVKNLSFTYPDGHKAIDGISFTVRHGESVGIVGENGAGKSTLLLVLMGVLFPNQGEVRVGDVRVTKKTLPLIRQRLGMVFQNPDDQLFMTTVYDDVAFGPRNYKLDEKEVEDRVMKSLDMVGISHLKDKAPYKLSGGEKRAAAIATVLSMQPDILVMDEPTSSLDPRSRRRVMELLKNFEHTKIITSHDLDMVLEICERTIVLKQGKVAADGLTSEILADKELMNTCGLEVPLALQGCPVCGEKKKYV,soluble
11,MNVAAILLAAGKSQRMGLCKQLLQLADRPAVAHCLDTLTAVGLQEIIVVVSPGGDEVAAAVSRYPVVVAVNESDSCDMADSARTGLARLISDPTGVLVALADHPLVRPDTVRALVNRHGEEPDAILIPVHDGAKGHPTLFPAAILQEIGQVATLRDIIGRHRDKVRLVPVADEGVVMDMDVWEDYLAMAERLNPPGLEHHHHHH,soluble
12,GMCINRQILNAVTASNRKKNTPLNTYVSFDEPVNPEDDSQVKLVDVLKSDKEQNPERLFIDQENAESLEDKLYSVLSGFEKNVLELYMSGKDYIAIAQTLDKPPKSIDNAIQRIRNKVDKITNL,not soluble
13,MAHHHHHHMLHLHRCAAQGDWLFLKNLHLVLDWASVLEKELCAMPIPSAEFRLIITTEPHDSFPVVLLRMSAKVTIEAPPGMKQNLLQSYTTWDEAFLQGKTKTTSQVLFGLAWFHALLQERRGYIPQGWVKFYEFSSADLKSAADVLCTLSRDKMDWTTVRGLLQECIYGGRLENSHDERVLERLISRIFNDETLVSCDRRLYDDMRVPATNVHRAVVQFIREHLPDADSPSILSLPDNADRAVKEQFALKLTEDLHTVSHLAQVCVSATEAWRTLLAPVLELWKNSALEPEGNAATVSPGETKEDPMSIFFMRELELLVGIVSNLTETFYDLRCVVEGTLIPSPELREEGTELIGGRVPPRWLDLMDGPKDVKLWFALLRRRRDTMMEYAKRPFSPSTPFDLIDFLRPQTFLNALRLYTVRVSNEALVELMLVATPVGRTADRLGVGFTLKGKSIHLQGALLDAQGILSLPSASSPSSTPLSCDVWAAWMSKHNTEGLARIPIYTNAGRTAAIMDLFLSCDSDMAEKLLLGGVAAFLMSV,not soluble
14,MSLSTELDFEKPIRDLKGKIEELRTFTEEKEIDLSDEIEKLEKRLHALEENIYGNLKPWQRVQIARHGERPTTLDYIEQLFSDFLEMHGDRLYGDDEAIVAGIAKYKGQPVTVIGHQRGKDTKENIRRNFGMPHPEGYRKALRLMKQAEKFHRPVICFIDTKGAYPGKAAEERGQSEAIARNLLEMAGLKVPIVCIVIGEGGSGGALALGVGDRIHMLENSTYSVISPEGAAALLWKDASQAQRAAETMKITAPDLKELQIIDDIIPEVRGGAHRNVAEQAEAIDQVLEKSLKQLSSLTTEELLNKRYEKYKKIGEFSHVNDAISVNEGHHHHHH,soluble
15,MSLSLDFSDNTFQPLAARMRPENLAQYIGQQHLLAAGKPLPRAIEAGHLHSMILWGPPGTGKTTLAEVIARYANADVERISAVTSGVKEIREAIERARQNRNAGRRTILFVDEVHRFNKSQQDAFLPHIEDGTITFIGATTENPSFELNSALLSRARVYLLKSLSTEDIEQVLTQAMEDKTRGYGGQDIVLPDETRRAIAELVNGDARRALNTLEMMADMAEVDDSGKRVLKPELLTEIAGERSARFDNKGDRFYDLISALHKSVRGSAPDAALYWYARIITAGGDPLYVARRCLAIASEDVGNADPRAMQVAIAAWDCFTRVGPAEGERAIAQAIVYLACAPKSNAVYTAFKAALADARERPDYDVPVHLRNAPTKLMKEMGYGQEYRYAHDEANAYAAGEVYFPPEIAQTRYYFPTNRGLEGKIGEKLAWLAEQDQNEGHHHHHH,soluble
16,MAHHHHHHMKVSFTLFFIIYIILNCDVLKCEVESSDSTSFLNLISGQSSSNSDDTVSSSDSRGVVASVSGTVDSDVSRTDSTGNVNSKNSELSETRQNSVEQNNNSNSSDNSIKIKSAFLKENVGVKITGPCDEGFGLVMVPHIIINVDTRNTDIQLGKKSSEINYGIKLRKKGKDEYEEKVGIDLLKNVCETGKNFKFVAYIKGDELIIKWKVIEEGNIPIDIKKFKIKRMSPPITSIQVFSSMSDEKSFVLENKNYVVTNNMPEKCEALATNCFLSGNIDIEKCYQCSLLVENDSKSDVCYNFISRENKEKLNEERFKVKGSTEYEESVESELKGAIDLLISSFYKSDGENGENVLISFEDLNSTLEDDIINFCSLLKLVDLSG,not soluble
